Measured values published in the supplement of paper PMC12764529.
± gives the half width of the 95% confidence interval.

How the values were obtained:
[1] = folding stability dG unfold (combined trypsin and chymotrypsin); higher = more stable
Method in brief: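 Designed mini-proteins (under 80 residues, no cysteine) in a PA-tagged cDNA display construct were digested with trypsin and chymotrypsin. Each protease was used at 11 concentrations (threefold dilutions) plus a no-protease condition, followed by sequencing. K50 was inferred by Bayesian fitting of sequencing counts, and unfolding free energy was derived against a sequence-predicted unfolded-state K50 and a shared folded-state K50, per protease or combined. Only designs with AlphaFold2 dimer inter-PAE above 15 were kept.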

[2] = folding stability dG unfold from chymotrypsin proteolysis; higher = more stable
Protocol: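 Folding stability of de novo designed mini-proteins (<80 aa, no Cys; designed by TrROS, TrMRF, ProteinMPNN and the joint model) was measured by cDNA display proteolysis with trypsin and chymotrypsin. Each protease was used at 11 concentrations in a threefold dilution series plus a no-protease condition. K50 was inferred by Bayesian fitting of sequencing counts, and dG unfold was derived against a sequence-predicted unfolded-state K50 (Tsuboyama et al. method). Sequences shown include variable-length N-terminal GS-type padding (SAGGSAGG...) inside a display construct carrying a PA tag. Rows were kept only if the AF2 dimer inter-PAE was >15, to exclude likely homo-oligomers.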

Sequence: SAGGSAGGSAGRRSVPEEVVEAIAEELPREGLTPKSIEVVEGEDEFEAVIEYDDRTITVAGSAGGSAGGSAG [r3_395_JUSTAS]
- folding stability dG unfold [1]: -0.101 ± 0.1 kcal/mol
- folding stability dG unfold [2]: 0.492 ± 0.023 kcal/mol

Sequence: SAGGSAGGSAGSMVTPVTLERYVYIEPTPDGVERKRVVPVKVKETVTVDAAGNVTTTTEVLLSAGGSAGGSA [r18_284_JUSTAS]
- folding stability dG unfold [1]: < -1 kcal/mol
- folding stability dG unfold [2]: -0.871 ± 0.31 kcal/mol

Sequence: SAGGSAGGSAGSPNYIPKEVTIKVEGEGKPVEVKIKLTTSPEGKPASEEEILKKAEELLKSAGGSAGGSAGG [r17_373_JUSTAS]
- folding stability dG unfold [1]: 0.0156 ± 0.34 kcal/mol
- folding stability dG unfold [2]: 0.372 ± 0.058 kcal/mol

Sequence: SAGGSAGGSAGSSSSAVRESFQKSPTNVVTRTVTTYDANPSVLSTSSTTVPLSSVPPELLSAGGSAGGSAGG [r11_493_JUSTAS]
- folding stability dG unfold [1]: 0.00507 ± 0.15 kcal/mol
- folding stability dG unfold [2]: 0.44 ± 0.13 kcal/mol

Sequence: SAGGSAGGSAGSTTTRTVELPPGTSLEEVRARLEAEGYTGVVITEVERPPGPRLRVTVVGSAGGSAGGSAGG [r11_800_JUSTAS]
- folding stability dG unfold [1]: -0.0782 ± 0.22 kcal/mol
- folding stability dG unfold [2]: 0.293 ± 0.06 kcal/mol

Sequence: SAGGSAGGSAGVVYPLAGRPVRIDTSATDSLVVTTEPPDGTRTTRTYPDMDLDEVLAALASAGGSAGGSAGG [r11_934_JUSTAS]
- folding stability dG unfold [1]: 0.0129 ± 0.12 kcal/mol
- folding stability dG unfold [2]: 0.639 ± 0.072 kcal/mol

Sequence: SAGGSAGGSAGYKPDPDGQYTQEMRLPREPPRIRITIPMSPNDPDKAQKFINNLAEEFGISAGGSAGGSAGG [r17_501_TrROS]
- folding stability dG unfold [1]: -0.32 ± 0.32 kcal/mol
- folding stability dG unfold [2]: -0.0614 ± 0.64 kcal/mol

Sequence: SAGGSAGGSAIKIETQGTPEEAREFAKDFANKNPELLENMKIDVITWRPPEPKYTPNGKPKSAGGSAGGSAG [r3_89_TrROS]
- folding stability dG unfold [1]: -0.759 ± 0.24 kcal/mol
- folding stability dG unfold [2]: -0.104 ± 0.2 kcal/mol

Sequence: SAGGSAGGSAITIKELAKEGYTIEIRPPDGKKETFKPGDSVDDPAEEFDLPPNWRIEIRPPSAGGSAGGSAG [r3_216_TrROS]
- folding stability dG unfold [1]: < -1 kcal/mol
- folding stability dG unfold [2]: -0.382 ± 0.3 kcal/mol

Sequence: SAGGSAGGSAKNTASLKKDDGFVAYNPKTGKYVAEVEVVKDDKDNIDLPLPNGDEVEIDAVGSAGGSAGGSA [r18_363_TrMRF]
- folding stability dG unfold [1]: -0.846 ± 0.44 kcal/mol
- folding stability dG unfold [2]: -0.54 ± 0.42 kcal/mol

Sequence: SAGGSAGGSALLEEAGALAAARGWDVEVSPGPVVTVRSPAGREVTITREGDELTVTERELPGDRSAGGSAGG [r6_523_JUSTAS]
- folding stability dG unfold [1]: -0.308 ± 0.35 kcal/mol
- folding stability dG unfold [2]: 0.466 ± 0.18 kcal/mol

Sequence: SAGGSAGGSALRPDEPFLVRVRIVDPRPGEGPPVERELVLPLEAILRLIPPGAGADVELLPSAGGSAGGSAG [r3_223_TrMRF]
- folding stability dG unfold [1]: < -1 kcal/mol
- folding stability dG unfold [2]: -0.747 ± 0.94 kcal/mol

Sequence: SAGGSAGGSAPKFDLRPEVFPLEDDSFLFVSRLLDPDKRLLTLVKVPPNGGLELGDVLLLDSAGGSAGGSAG [r3_165_TrMRF]
- folding stability dG unfold [1]: -0.829 ± 0.33 kcal/mol
- folding stability dG unfold [2]: -0.176 ± 0.3 kcal/mol

Sequence: SAGGSAGGSASSVSSLSEETLPDGKPVLVRKETVYDPKHGLTGLSVTYYTLGGKKLKTEVVSAGGSAGGSAG [r3_154_JUSTAS]
- folding stability dG unfold [1]: -0.698 ± 0.22 kcal/mol
- folding stability dG unfold [2]: -0.477 ± 0.26 kcal/mol

Sequence: SAGGSAGGSAVVYDENTAIVKTPNKDYLLKVKVGDTVDIPDSAGIPVPVKVEKDFPIPPSELSAGGSAGGSA [r18_244_JUSTAS]
- folding stability dG unfold [1]: -0.943 ± 0.43 kcal/mol
- folding stability dG unfold [2]: -0.38 ± 0.12 kcal/mol

Sequence: SAGGSAGGSAWYIRIKSPELRKKLKNAGGIKPTEREPNWVTFKFPGMPPKKRDKIRELIKDSAGGSAGGSAG [r3_398_TrROS]
- folding stability dG unfold [1]: -0.969 ± 0.26 kcal/mol
- folding stability dG unfold [2]: -0.644 ± 0.49 kcal/mol

Sequence: SAGGSAGGSGEPRTVLVEVLYDDKPVLIPVTADSEEALPEVARAAIEPLAEKYPHVEIPLPTESAGGSAGGS [r12_230_TrMRF]
- folding stability dG unfold [1]: -0.66 ± 0.52 kcal/mol
- folding stability dG unfold [2]: 0.164 ± 0.11 kcal/mol

Sequence: SAGGSAGGSGSMSLSESPTSRTLTLTYPDSVVVTEYDPETGPPVTRFVSREDGVPVVYPAELLSAGGSAGGS [r12_632_JUSTAS]
- folding stability dG unfold [1]: -0.414 ± 0.09 kcal/mol
- folding stability dG unfold [2]: -0.0818 ± 0.1 kcal/mol

Sequence: SAGGSAGGSGTSTSSSGPSTVTITLHTDSPVTLTVPPETTEELAAELKARGYNLEVKVTPAPASAGGSAGGS [r20_124_JUSTAS]
- folding stability dG unfold [1]: -0.195 ± 0.11 kcal/mol
- folding stability dG unfold [2]: 0.161 ± 0.12 kcal/mol

Sequence: SAGGSAGGSGYPGLPMPVLRVRFAGDPEPVFIPVPADRPDVARAAAEELRALRPDVPVELELGSAGGSAGGS [r12_601_TrMRF]
- folding stability dG unfold [1]: 0.107 ± 0.057 kcal/mol
- folding stability dG unfold [2]: 0.823 ± 0.045 kcal/mol

Sequence: SAGGSAGGSGYSVSVSEDFSSSPETRTVTTTTTSPSSGPLVTTTTTTTSPIPPRTPAEVAAAASAGGSAGGS [r12_841_JUSTAS]
- folding stability dG unfold [1]: 0.327 ± 0.048 kcal/mol
- folding stability dG unfold [2]: 0.697 ± 0.029 kcal/mol

Sequence: SAGGSAGGSIKITLETETETYLDPEDPNRPVTKVKAVKPTIEVPEENPEKLKELAEKLGLELESAGGSAGGS [r12_249_TrMRF]
- folding stability dG unfold [1]: 0.232 ± 0.1 kcal/mol
- folding stability dG unfold [2]: 0.723 ± 0.034 kcal/mol

Sequence: SAGGSAGGSKIKSITIDPEAGKVTIEVDKDTPPKPLPSVKTVEEKNDGYTVTFDVKDDEEILLSAGGSAGGS [r20_37_TrMRF]
- folding stability dG unfold [1]: -0.39 ± 0.41 kcal/mol
- folding stability dG unfold [2]: 0.416 ± 0.086 kcal/mol

Sequence: SAGGSAGGSKMKKITIEVPTEEERKALEEAIKKGEPEVEITTKNGKKIKIKKIEIKEIKIEKKSAGGSAGGS [r12_334_TrROS_Hall]
- folding stability dG unfold [1]: 0.758 ± 0.42 kcal/mol
- folding stability dG unfold [2]: 1.58 ± 0.14 kcal/mol

Sequence: SAGGSAGGSMKLGGKPIKRVESEPLPGPSRLFYIELEDKKIPVVLEGDKLLVSPELFEWEKEGSAGGSAGGS [r20_92_TrMRF]
- folding stability dG unfold [1]: -0.0157 ± 0.2 kcal/mol
- folding stability dG unfold [2]: 0.396 ± 0.22 kcal/mol

Sequence: SAGGSAGGSMPEKKFKAEVVEEIEDPKTGKKFYFLKDTKQIFVENKDGSRTAITIDEDKLEIVSAGGSAGGS [r12_420_TrROS_Hall]
- folding stability dG unfold [1]: 0.0252 ± 0.15 kcal/mol
- folding stability dG unfold [2]: 0.433 ± 0.098 kcal/mol

Sequence: SAGGSAGGSMTITVETTSKDPAVAEKELTEKVKKEYPPSVKVEIDPVSSPDGVARVRATIIRESAGGSAGGS [r20_122_JUSTAS]
- folding stability dG unfold [1]: 0.291 ± 0.19 kcal/mol
- folding stability dG unfold [2]: 0.529 ± 0.09 kcal/mol

Sequence: SAGGSAGGSMTPVHVYVPPSLSPEEARARVRAELRAALPAAEADVPLEDVEVVLRPLPPDVPLSAGGSAGGS [r12_384_JUSTAS]
- folding stability dG unfold [1]: < -1 kcal/mol
- folding stability dG unfold [2]: 0.303 ± 0.42 kcal/mol

Sequence: SAGGSAGGSMTTLRTRLKGDGTVEIEVYEPGRIRTITLPPSEVDKIPDVEDLPRYELEGDAPESAGGSAGGS [r12_343_JUSTAS]
- folding stability dG unfold [1]: -0.514 ± 0.22 kcal/mol
- folding stability dG unfold [2]: 0.147 ± 0.21 kcal/mol

Sequence: SAGGSAGGSMTVTLSYPDGSTVTRPLEGKSLEEAIAALPEDVTEVQVTVLEGSTPVTRTVPRPSAGGSAGGS [r12_767_JUSTAS]
- folding stability dG unfold [1]: 0.344 ± 0.054 kcal/mol
- folding stability dG unfold [2]: 0.731 ± 0.023 kcal/mol

Sequence: SAGGSAGGSPAIRVERDPETDVLLAEIGHPDGVPALARISPATGTVTVLEGGKLVEVPLPEIGSAGGSAGGS [r12_650_TrMRF]
- folding stability dG unfold [1]: 0.113 ± 0.13 kcal/mol
- folding stability dG unfold [2]: 0.627 ± 0.018 kcal/mol

Sequence: SAGGSAGGSPPVIHPMTVTTLAYDPATGVVDVLVDDKGKDPAVREAAEAAARAAGHPVEVVPRSAGGSAGGS [r20_157_JUSTAS]
- folding stability dG unfold [1]: < -1 kcal/mol
- folding stability dG unfold [2]: -0.637 ± 0.34 kcal/mol
